Changes are numbered by the printed parent chain.
T1: human IL-2Rβγ receptor on primary human T-cells and NK-cells (PBMCs) (human, UniProt P14784 27-551; P31785 23-369)
T1 construct: Endogenous receptor on primary cells; also called dimeric IL-2Rβγ receptor complex
T1 sequence 1: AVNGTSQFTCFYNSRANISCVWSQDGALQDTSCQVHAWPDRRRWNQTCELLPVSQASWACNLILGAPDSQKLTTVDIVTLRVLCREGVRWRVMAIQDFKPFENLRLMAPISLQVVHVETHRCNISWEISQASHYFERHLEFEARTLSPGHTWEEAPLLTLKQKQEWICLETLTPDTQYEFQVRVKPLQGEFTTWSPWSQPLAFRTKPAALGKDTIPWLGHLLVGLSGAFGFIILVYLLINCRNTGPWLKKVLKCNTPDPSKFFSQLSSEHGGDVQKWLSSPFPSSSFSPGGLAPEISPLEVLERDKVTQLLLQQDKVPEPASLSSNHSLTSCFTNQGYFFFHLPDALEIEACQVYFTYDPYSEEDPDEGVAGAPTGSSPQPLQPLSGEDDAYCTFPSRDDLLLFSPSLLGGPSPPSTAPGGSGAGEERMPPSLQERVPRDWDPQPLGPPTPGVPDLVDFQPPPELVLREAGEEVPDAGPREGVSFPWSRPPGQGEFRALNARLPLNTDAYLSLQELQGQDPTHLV
T1 sequence 2: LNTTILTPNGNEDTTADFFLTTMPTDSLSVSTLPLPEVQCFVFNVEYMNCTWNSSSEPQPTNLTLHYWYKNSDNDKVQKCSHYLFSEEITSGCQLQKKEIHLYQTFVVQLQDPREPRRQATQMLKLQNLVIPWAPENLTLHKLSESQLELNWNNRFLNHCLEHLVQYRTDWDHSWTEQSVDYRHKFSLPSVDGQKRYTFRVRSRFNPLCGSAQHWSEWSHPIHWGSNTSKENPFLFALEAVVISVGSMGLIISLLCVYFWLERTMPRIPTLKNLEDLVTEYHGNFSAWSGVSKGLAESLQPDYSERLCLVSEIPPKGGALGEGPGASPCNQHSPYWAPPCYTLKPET

T2: cynomolgus IL-2Rγ (recombinant protein and on cells) (cynomolgus, UniProt A0A2K5VGJ6 23-254)
T2 construct: also called cynomolgus IL-2RG
T2 sequence: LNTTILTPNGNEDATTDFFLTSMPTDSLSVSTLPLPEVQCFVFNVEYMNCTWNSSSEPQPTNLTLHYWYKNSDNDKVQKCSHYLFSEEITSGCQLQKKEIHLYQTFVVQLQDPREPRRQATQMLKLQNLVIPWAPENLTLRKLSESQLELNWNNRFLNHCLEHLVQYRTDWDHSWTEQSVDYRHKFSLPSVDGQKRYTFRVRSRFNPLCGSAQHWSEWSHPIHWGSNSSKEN

B1: BsAb-2 (IL2RB_F09G**IL2RG_F16B) (bispecific antibody, human IgG4, V domains shown)
V domain 1: QVQLQESGPGLVKSSETLSLTCTVSGGSISSSDWWSWVRQPPGKGLEWIGEIDHSGSTNYNPSLMSRVTISVDKSKNQFSLKLSSVTAADTAVYFCARGSWELTDAFDIRGQGTLVTVSS
V domain 2: QVQLVESGGGLVKPGGSLRLSCAASGFTFSDYYMSWIRQAPGKGLEWVSYISSSGSTIYYADSVKGRFTISRDNAKNSLYLQMNSLRAEDTAVYYCARGDAVSITGDYRGQGTLVTVSS
notes: Heavy chain-only bispecific on silenced, stabilised human IgG4 Fc, knobs-into-holes, no light chains; not shown: C-terminal His-tag on the knob chain
B2: BsAb-6 (IL2RB_F18E**IL2RG_F16A) (bispecific antibody, human IgG4, V domains shown)
V domain 1: QVQLVESGGGVVQPGRSLRLSCAASGFTFSSYGMHWVRQAPGKEREWVAVISYDGSNKYYTDSVKGRFTISRDNSKNTLYLEMNSLRAEDTAVYYCARDLDYDVLTGDPVGGFDIWGQGTLVTVSS
V domain 2: B1 V domain 2 with Y50S, S56D, K65Q, I70L, K76E, Y80F
notes: as for B1
B3: BsAb-3 (IL2RB_F09G**IL2RG_F16C) (bispecific antibody, human IgG4, V domains shown)
V domain 1: B1 V domain 1
V domain 2: B1 V domain 2 with S30N, Y50H, I70V, K76N, N84H
notes: as for B1
B4: BsAb-4 (IL2RB_F09G**IL2RG_F18A) (bispecific antibody, human IgG4, V domains shown)
V domain 1: B1 V domain 1
V domain 2: QVQLVESGGDLVKPGGSLRLSCAASGFTFSDYYMSWLRQAPGKELEWVSHISSSGTTTYYADSVEGRFTITRDNAKNSLYLQMNSLRAEDTAVYYCARGAAVAPGFDSRGQGTLVTVSS
notes: as for B1
B5: BsAb-5 (IL2RB_F09K**IL2RG_F16B) (bispecific antibody, human IgG4, V domains shown)
V domain 1: B1 V domain 1 with G8S, S14P, D33N, D53S, M65K, K82R, A97G
V domain 2: B1 V domain 2
notes: as for B1
B6: BsAb-1 (IL2RB_F09C**IL2RG_F16A) (bispecific antibody, human IgG4, V domains shown)
V domain 1: B1 V domain 1 with S14P, E16G, T23A, A97G, T104S
V domain 2: B1 V domain 2 with Y50S, S56D, K65Q, I70L, K76E, Y80F
notes: as for B1

Molecular target: T1, human IL-2Rβγ receptor on primary human …
Test: flow cytometry cell binding on human CD8+ T-cells (PBMC), gMFI as fold over secondary antibody only
Description: All washes and dilutions of cells, antibodies, and reagents were performed using flow buffer (1X PBS, 1% BSA, 0.1% NaN3, pH 7.4). Staining was performed in a round-bottom 96-well plate (Corning) seeded at 100,000 cells/well, and all incubations were performed at 4° C. or on ice. […] The cells were washed twice with 200 μL flow buffer. The cells were then incubated for 30 minutes with detection antibody (Goat F(ab′)2 Anti-Human IgG-PE, Southern Biotech) at 0.625 μg/mL in flow buffer. Following 2 more washes, the cells were resuspended in a final volume of 150 μL of flow buffer. The cells were analyzed on a BD FACSCelesta or a Guava easyCyte 8-HT flow cytometer. At least 3000 events were collected, and PE geometric mean fluorescence intensity was plotted as a fold over background (cells incubated with secondary detection antibody only). In some secondary screens involving human or cynomolgus PBMCs, an additional CD4 antibody (BioLegend) and/or CD8 antibody (BioLegend) was included to further characterize cell binding.

EC50 (read off the curve)	Binder
~10 nM	B1
~5 nM	B2
~5 nM	B3

Molecular target: T2, cynomolgus IL-2Rγ (recombinant protein …)
Test: biolayer interferometry (Octet Qk384), antibody captured on anti-human Fc (AHC) sensors, antigen 7.8-500 nM in solution, 1:1 fit, KD = kd/ka
Description: All kinetics measurement experiments were performed on a ForteBio Octet Qk384 instrument using anti-human Fc capture (AHC, 18-5005) sensors. The bispecific heavy chain-only antibodies and antigens were diluted to final concentrations in Kinetics buffer (0.02% Tween20, 0.1% BSA, 0.05% sodium azide, 1X PBS). Kinetics measurements were against the following antigens: human IL-2RB (AcroBiosystems), human TL-2RG (AcroBiosystems), cynomolgus IL-2RB (Sino Biological), cynomolgus IL-2RG (expressed and purified in house using ExpiCHO expression system followed by Ni-NTA his-tag purification). The antibodies were loaded on the AHC sensors at 5 μg/mL for maximum loading. Following a short baseline in Kinetics buffer, the sensors were exposed to a series of analyte concentrations (7.8 nM to 500 nM) for association step and background subtraction was used to correct for sensor drifting. Dissociation was monitored in Kinetics buffer. The capture surfaces were regenerated for 60s. All experiments were performed with shaking at 1000 rpm. ForteBio's data analysis software was used to fit the data to a 1:1 binding model to extract an association rate and dissociation rate. The KD was calculated using the ratio kd/ka.

Kd	Binder
50.2 nM	B1
5.42 nM	B2
5.81 nM	B4
41.5 nM	B5
3.58 nM	B3
4.87 nM	B6

Source: US20260102487A1 (Amgen, published 2026)
